This is an account of results in the DeepSol protein solubility set.

The nature of the series: soluble on expression in E. coli; label from the status in PepcDB or PDB records.
“MIYTVTLNPSIDYVVQVNSLDLGAVNRAEKDMKFPGGKGINVSRVLHRLGVENVALGFTGGFTGRFIKDVLQTEGVITNFVQVDGDSRINVKIKGQEETELNGQGPSVTNEQFEQLMKQIESMQKGDYVVLAGSVPASIPTTFYESIAAFGAEKGIRVVVDASGSALQHVVKNKPFLIKPNHHELGELFGVEISTAEDILPYGRKLIEQGVEHVIVSMAGDGALLFTAEGIYEATVPKGVVINSVGAGDSLVAGFVGKYEQTKDIEKAFQYGVATGSATAFSADLCEKEKVEELLSQVIVTKR”: the “soluble on expression in E. coli” value is listed as “not soluble”.

As for “MGSDKIHHHHHHMSGHKCYPWDLQDRYAQDKSVVNKMQQKYWETKQAFIKATGKKEDEHVVASDADLDAKLELFHSIQRTCLDLSKAIVLYQKRICFLSQEENELGKFLRSQGFQDKTRAGKMMQATGKALCFSSQQRLALRNPLCRFHQEVETFRHRAISDTWLTVNRMEQCRTEYRGALLWMKDVSQELDPDLYKQMEKFRKVQTQVRLAKKNFDKLKMDVCQKVDLLGASRCNLLSHMLATYQTTLLHFWEKTSHTMAAIHESFKGYQPYEFTTLKSLQDPMKKLVEKEEKKKINQQESTDAAVQEPSQLISLEEENQRKESSSFKTEDGKSILSALDKGSTHTACSGPIDELLDMKSEEGACLGPVAGTPEPEGADKDDLLLLSEIFNASSLEEGEFSKEWAAVFGDGQVKEPVPTMALGEPDPKAQTGSGFLPSQLLDQNMKDLQASLQEPAKAASDLTAWFSLFADLDPLSNPDAVGKTDKEHELLNA”, the “soluble on expression in E. coli” value is listed as “not soluble”.

As to “MGSDKIHHHHHHMGTVNRAVFLDRDGVINKDHGYVHQVDDFEYIEGVFEACLALKQQGYKLVVVTNQSGIARGMYTEDQFHSLTEWMDWNFADKGVDLDGIYYCPHHNEKGIGEYKVDCDCRKPKPGMLIDAAKFLKIDLSQSVMVGDKTDDMLAAKAAGVPTRILVRTGKAIADESDASVVLDSIADVPAFLKNHKAS”, the “soluble on expression in E. coli” value was “not soluble”.

For the sequence “GSHMTNWLRVYYYEDTISTIKDIAVEEDLSSTPLLKDLLELTRREFQREDIALNYRDAEGDLVRLLSDEDVALMVRQARGLPSQKRLFPWKLHITQKDNYRVYNTMP”, the “soluble on expression in E. coli” value is on record as “soluble”.

Consider “MSLANNKISQTTKKLSQIFNSEKQPAVFFDKNVSTIEENNSLLDGQTDVPVLDPHDLLVEVQAVSVNPVDTKLRQTGVASKIKILGYDAFGIVKNTGKDVTRFHAGDRVYYAGTTQRPGSNEKFQAVDERLVGRAPEKLNKSEIAAMPLTSITAYEILVDQLGLRFQNHAADGKNMLVINGAGGVGSVLLQMAAYLGINLSVTAHSSESIEWLKKYSVDKIYDYENIDETLADQKFDYIVFLYDPALYWDIAIKHIKPYGQLVSIVGTNKPLNMGPLKNIAVQFKWEYMFAKSDFNHNILSQGQALDKIAILLDAGILKTTLNKTFDLINAENLRQAYKLVESGRMQGKVVLNGEGHHHHHH”, for which the “soluble on expression in E. coli” value is given as “not soluble”.

In the case of “MTPPRMRISGENELVQALLEHGHVLVEASEAELIFDPTQLVRRGQIVAHLGHATLADLDAYSSGHAFVLTELMPQIYAVTASDELAGMVAELLISELGGRVVHVPESQRDRLTAGLACAGFIGQVRSEARNLLTEALGNAHHADEVVEQLTDAVAPPLNVAALERGYHAIDSVGTKRLYAQLARRSGEVFRNNDVELWAMNQEQNNT”, the “soluble on expression in E. coli” value is “not soluble”.

In the case of “SEEYHRHCDEVGFNAEEAHNIVKECVDGVLGGEDYNHNNINQWTASIVEQSLTHLVKLGKAYKYIVTCAVVQKSAYGFHTASSCFWDTTSDGTCTVRWENRTMNCIVNVFAIAIVL”, the “soluble on expression in E. coli” value is recorded as “soluble”.

For the sequence “DTDGLWAALTEAAASVEKLLATLPEHGARSSAERAEIAAAHDAARALRVRFLDTHADAVYDRLTDHRRVHLRLAELVEAAATAFPGLVPTQQQLAVERSLPQAAKEGHEIDQGIFLRAVLRSPLAGPHLLDAMLRPTPRALELLPEFVRTGEVEMEAVHLERRDGVARLTMCRDDRLNAEDGQQVDDMETAVDLALLDPGVRVGLLRGGVMSHPRYRGKRVFSAGINLKYLSQGGISLVDFLMRKELGYIHKLVRGVLTNDDRPGWWHSPRIEKPWVAAVDGFAIGGGAQLLLVFDRVLASSDAYFSLPAAKEGIIPGAANLRLGRFAGPRVSRQVILEGRRIWAKEPEARLLVDEVVEPDELDAAIERSLTRLDGDAVLANRRMLNLADESPDGFRAYMAEFALMQALRLYGHDVI”, the “soluble on expression in E. coli” value is on record as “soluble”.

On to “MNTMNSVLKYKELALYGGSFDPLHKAHLAIIEQTLELLPSAKLIVLPAYQNPFKKPCFLDAQTRFKELERALKGIDRVLLSDFEIKQERAVPTIESVLHFQKLYHPQTLYLVIGADCLRHLSSWTNAKELLKRVELVVFERIGYEEIQFKGHYHPLKGIDAPISSSAIRASLGV”, for which the “soluble on expression in E. coli” value is reported as “not soluble”.

For “MEPRTIACPHKGCTKMFRDNSAMRKHLHTHGPRVHVCAECGKAFVESSKLKRHQLVHTGEKPFQCTFEGCGKRFSLDFNLRTHVRIHTGDRPYVCPFDGCNKKFAQSTNLKSHILTHAKAKNNQ”, the “soluble on expression in E. coli” value is given as “soluble”.

Turning to “MSLALRFITAEEAAEFVHHNDNVGFSGFTPAGNPKVVPAAIAKRAIAAHEKGNPFKIGMFTGASTGARLDGVLAQADAVKFRTPYQSNKDLRNLINNGSTSYFDLHLSTLAQDLRYGFYGKVDVAIIEVADVTEDGKILPTTGVGILPTICRLADRIIVELNDKHPKEIMGMHDLCEPLDPPARRELPVYTPSDRIGKPYVQVDPAKIVGVVRTSEPNDESDFAPLDPVTQAIGDNVAAFLVSEMKAGRIPKDFLPLQSGVGNVANAVLGALGDNPDIPAFNMYTEVIQDAVIALMKKGRIKFASGCSLSVSRSVIQDIYANLDFFKDKILLRPQEYSNNPEIVRRLGVITINTALEADIFGNINSTHVSGTRMMNGIGGSGDFTRNSYVSIFTTPSVMKDGKISSFVPMVAHHDHSEHSVKVIISEWGVADLRGKNPRERAHEIIDKCVHPDYRPLLRQYLELGVKGQTPQNLDCCFAFHQELAKSGDMRNVRWEDYMKEGHHHHHH”, the “soluble on expression in E. coli” value is recorded as “soluble”.

“MGSDKIHHHHHHMPKHLYSLLVVNINMFEKEKEILAKRIAGEIVLSPDPGKTMRKWREIFGISQTELADYLGVSSSVISDYEGGRRKSPGASTIRKFVEALIEIDEKRGGNVIKAFSRTFSSEIPTSAILDIREFDIPVTVKDIVDAVKGEIVANPDLIDRKIYGYTVVDSIQAILEMSAEEFLKLYGWTTERALVFTKVTTGRSPMIAVRVQGLKPAMVVLHGVKRLDELAVKIAEKERVPLVVSKAENETELITGLRRLVTSI”: the “soluble on expression in E. coli” value is reported as “not soluble”.

Turning to “ARDPKHDILFEPIQIGPKTLRNRFYQVPHAIGAGSDKPGFQSAHRSVKAEGGWAALNTEYCSINPESDDTHRLSARIWDEGDVRNLKAMTDEVHKYGALAGVELWYGGAHAPNMESRATPRGPSQYASEFETLSYCKEMDLSDIAQVQQFYVDAAKRSRDAGFDIVYVYGAHSYLPLQFLNPYYNKRTDKYGGSLENRARFWLETLEKVKHAVGSDCAIATRFGVDTVYGPGQIEAEVDGQKFVEMADSLVDMWDITIGDIAEWGEDAGPSRFYQQGHTIPWVKLVKQVSKKPVLGVGRYTDPEKMIEIVTKGYADIIGCARPSIADPFLPQKVEQGRYDDIRVCIGCNVCISRWEIGGPPMICTQNATAGEEYRRGWHPEKFRQTKNKDSVLIVGAGPSGSEAARVLMESGYTVHLTDTAEKIGGHLNQVAALPGLGEWSYHRDYRETQITKLLKKNKESQLALGQKPMTADDVLQYGADKVIIATGARWNTDGTNCLTHDPIPGADASLPDQLTPEQVMDGKKKIGKRVVILNADTYFMAPSLAEKLATAGHEVTIVSGVHLANYMHFTLEYPNMMRRLHELHVEELGDHFCSRIEPGRMEIYNIWGDGSKRTYRGPGVSPRDANTSHRWIEFDSLVLVTGRHSECTLWNELKARESEWAENDIKGIYLIGDAEAPRLIADATFTGHRVAREIEEANPQIAIPYKRETIAWGTPHMPGGNFKIEYKV”, the “soluble on expression in E. coli” value was “soluble”.

Take “MGSDKIHHHHHHMEQRKRRLPPLKSLLFLESVVRNQSVTAAADELSITHSAVSKQLSQLEVWIGQPLFLEKRKGMIPTAEIGRVAAVLGNAFDEIQDALDELHPKRAAKPPVLRVIAPATLAMRWLIPKLGEFHTSAGETDVMVRPTHTPDNWLEMEFDIAIRRGGLIPPQFLPQSLFAETLSLVATARVAESYRMGQGDQLSQIGLIDVSTRHGELMNWLKLAGLPVAMARQATKLPHFYIALDAMFAGRGALVVPTYLIEDQLSRGELVELFPQSRIQGPSYQVFVNPASGAGNLAKGFVDWIKRAIPSVAQYAETR”: the “soluble on expression in E. coli” value is “not soluble”.

For the sequence “MSLKPSDAEEARTEAFLVKLREFLDTVDGSVIERAAQIPDEYVKGLAELGCFGLKIPSEYGGLNMSQVAYNRVLMMVTTVHSSLGALLSAHQSIGVPEPLKLAGTAEQKRRFLPRCAAGAISAFLLTEPDVGSDPARMASTATPIDDGQAYELEGVKLWTTNGVVADLLVVMARVPRSEGHRGGISAFVVEADSPGITVERRNKFMGLRGIENGVTRLHRVRVPKDNLIGREGDGLKIALTTLNAGRLSLPAIATGVAKQALKIAREWSVERVQWGKPVGQHEAVASKISFIAATNYALDAVVELSSQMADEGRNDIRIEAALAKLWSSEMACLVGDELLQIRGGRGYETAESLAARGERAVPVEQMVRDLRINRIFEGSSEIMRLLIAREAVDAHLTAAGDLANPKADLRQKAAAAAGASGFYAKWLPKLVFGEGQLPTTYREFGALATHLRFVERSSRKLARNTFYGMARWQASLEKKQGFLGRIVDIGAELFAISAACVRAEAQRTADPVEGEQAYELAEAFCQQATLRVEALFDALWSNTDSIDVRLANDVLEGRYTWLEQGEGHHHHHH”, the “soluble on expression in E. coli” value was “not soluble”.

On to “MPRSDGFSPRKNLRRSARDHSRSYAGQCNEDFDDMYAPSSRRRSSGGVDGNGYTRSGRKINHNRYYEEEYHEAISSEEDERRYRTRRSSNSMTYRQQVMQAIDESKRNQKVPPAKRKRIYLSDEEEEDFAEAAHVENTVPERATRRSTRRRSSMHEELGVSEQEESPVRRTRKAAKRLGSEQPEENLAADDPLPMEGGGEIVLPIAEIDGMAEQENEDLIEKIGREEEEEGAEEDEQSGEKDPEEEEDDSSNAESSEESTAPRQYSLRRRQPVVQFNASEARENRRARLEHHRVANQNRHHRNRNGSRRRRSDSDSDSDDMVLPRPDKRQSRPHMHNRGERERGRFMPINMTEKELQSAQHILMDRMRKTDAGQGASDIDPMSVDSSVGFDQVGGLGHHIQSLKEVVLFPMLYPEVFEKFRINPPKGVVFYGPPGTGKTLVARALANECRRGANKVAFFMRKGADCLSKWVGESERQLRLLFDQAYAMRPSIIFFDEIDGLAPVRSSKQDQIHASIVSTLLALMDGLDGRGEVVVIGATNRLDTLDPALRRPGRFDRELRFSLPDLNARRQILDIHTSKWEENKPIPETLDAIAERTSGYCGADLKFLCTEAVLIGLRSRYPHIYMCSERLKLDVATIKITSEHFGHAMRRITPASRRDLTIPSRPLDERTSILLGDTVSNLISLRIPQGYRCVENAMATASSELEQVVRALEPNPTVPAIRLLLCGSEQLADGGQTSYVLPAILAKLDHLPVFSLSVSSLLTDGRPEEAFSNAIQSAMRASATGPCIMLLPSIDEWIKVIPVSVQHMLITCLESMTGFTPILFLSTLDTSFEDAPEYVTEIFRHANCITLNPSRRTIRQKYFEHVIEKINTPPKVFDPRLMRDRRFVEFVEPVDPDEAEDYYEIIETPICMQDIMEKLNNCEYNHADKFVADLILIQTNALEYNPSTTKDGKLIRQMANTLRDAIDDLIECELDESFVERIETVSRMLQDAGVTPTSDKLLTEIPKGFARKKAWSMTNSLAKEIEQWTSEREAENQKMLSKLGVAAPTLELVVVPVEDMKSEEGTSTSTDGVPASAGNKKKLLKKKKGQKKSKTGESEEHDEDSTVEDAGEDTIVENLEIKKNQETPNSEHDIEMKDASKDSTPSVQISIAEKELIVSKPATCELIQCCVEKSEGWSVSELERLSSVLSHTIERFRDEWNRENLPAQLTQIVREWQTADDSNNTIVNGTLNKSNGNLANGH”, for which the “soluble on expression in E. coli” value was “not soluble”.
